Measured values reported in patent publication US7374920B2, “Ginkgo biloba levopimaradiene synthase” (priority 2001, dated 2008).

System: EHY18 yeast cells
Test: in vivo expression of GbLS constructs in yeast strain EHY18 that accumulates GGDP, GC quantitation of products
Format: cell-based
Conditions: for diterpene products on expression in EHY18: GC, GC/MS
Description: The yeast strain of the copending application employed was EHY18 (Hart, E., 2001) which was further transformed with multiple-copy yeast expression vectors comprising an isolated and purified nucleic acid sequence of GbLS or derivatives thereof, which are described herein under control of the GAL1 inducible promoter. Yeast cells were grown to saturation in 5 mL ScD-Leu-Ura at 30° C. Cells were harvested (1300×g, 2 min, 25° C.) and resuspended in 500 μL sterile Milli-Q H2O (2×). The washed cells were resuspended in 5 mL sterile Milli-Q H2O. An aliquot of the culture (5 μL) was added to a 25 mL Corex tube containing pre-prepared 2× resin and 5 mL ScG-Leu-Ura (4% galactose) and shaken at 30° C. for 6 days. Resin was collected by filtration through a Kontes chromatography column (1.7 cm diameter) and rinsed with dI H2O until eluent was clear. The resin was incubated in 2 mL ethanol for several minutes, eluted, and repeated 2×. The combined eluents were dissolved in approximately 3 mL dI H2O and extracted (3×) with 3 mL hexane. The combined extracts were concentrated under a stream of nitrogen. GC analysis (quantitation extrapolated from 0.2 mg/mL longifolene external standard) indicated the following product profile (obtained from triplicate measurement of three cultures): 0.61±0.20 mg/L levopimaradiene, 0.04±0.01 mg/L abietadiene, 0.15±0.05 mg/L abietatriene, 0.16±0.13 mg/L (+)-copalol, and 1.79±0.90 mg/L geranylgeraniol. GC/MS fragmentation confirmed the identity of each compound.
A large scale culture (1-L) was prepared by growing the yeast cells to saturation in 5 mL ScD-Leu-Ura at 30° C. Cells were harvested (1300×g, 2 min, 25° C.) and resuspended in 500 μL sterile Milli-Q H2O (2×). The washed cells were resuspended in 5 mL sterile Milli-Q H2O. An aliquot of the culture (1 mL) was added to a 2 L flask containing 1-L ScG-Leu-Ura (4% galactose) and 88.27 g resin in 120 mL Milli-Q H2O (pre-prepared). The resin was eluted with ethanol (3×100 mL with 20 min incubation periods), which was subsequently extracted (6×) with hexane. The combined extracts were dried over magnesium sulfate, filtered, and concentrated under reduced pressure. GC analysis (quantitation extrapolated from 0.2 mg/mL longifolene external standard) indicated the following product profile (obtained from triplicate measurement): 0.29±0.04 mg/L levopimaradiene, 0.04±0.02 mg/L abietadiene, 0.13±0.04 mg/L abietatriene, 0.11±0.02 mg/L (+)-copalol, and 0.56±0.03 mg/L geranylgeraniol. GC/MS analyses confirmed the production of the above noted diterpenes, which included hydrocarbons and an alcohol.
Further optimization studies employed the Ser61 construct. Factors influencing diterpene production included induction period and concentration of galactose and resin in the inducing medium.

[1] = EHY18, 6 days, 4% galactose, 0.70 g resin/5 mL culture medium, GC quantitation

Row | Molecule | diterpene products on expression in EHY18 | diterpene production relative to wild-type synthase (EHY18) | net yield of (+)-copalol [1] [mg/L] | net yield of diterpene hydrocarbons [1] [mg/L]
1 | Ala^2 (protein, listed as Ginkgo biloba) MAGVLFANLPCSLQLSPKVPFRQSTNILIPFHKRSSFGFNAQHCVRSHLRLRWNCVGIHASAAETRPDQLPQEERFVSRLNADYHPAVWKDDFIDSLTSPNSHATSKSSVDETINKRIQTLVKEIQCMFQSMGDGETNPSAYDTAWVARIPSIDGSGAPQFPQTLQWILNNQLPDGSWGEECIFLAYDRVLNTLACLLTLKIWNKGDIQVQKGVEFVRKHMEEMKDEADNHRPSGFEVVFPAMLDEAKSLGLDLPYHLPFISQIHQKRQKKLQKIPLNVLHNHQTALLYSLEGLQDVVDWQEITNLQSRDGSFLSSPASTACVFMHTQNKRCLHFLNFVLSKFGDYVPCHYPLDLFERLWAVDTVERLGIDRYFKKEIKESLDYVYRYWDAERGVGWARCNPIPDVDDTAMGLRILRLHGYNVSSDVLENFRDEKGDFFCFAGQTQIGVTDNLNLYRCSQVCFPGEKIMEEAKTFTTNHLQNALAKNNAFDKWAVKKDLPGEVEYAIKYPWHRSMPRLEARSYIEQFGSNDVWLGKTVYKMLYVSNEKYLELAKLDFNMVQALHQKETQHIVSWWRESGFNDLTFTRQRPVEMYFSVAVSMFEPEFAACRIAYAKTSCLAVILDDLYDTHGSLDDLKLFSEAVRRWDISVLDSVRDNQLKVCFLGLYNTVNGFGKDGLKEQGRDVLGYLRKVWEGLLASYTKEAEWSAAKYVPTFNEYVENAKVSIALATVVLNSIFFTGELLPDYILQQVDLRSKFLHLVSLTGRLINDTKTYQAERNRGELVSSVQCYMRENPECTEEEALSHVYGIIDNALKELNWELANPASNAPLCVRRLLFNTARVMQLFYMYRDGFGISDKEMKDHVSRTLFDPVA | produced (+)-copalol, levopimaradiene, abietadiene, and abietatriene |  |  | 
2 | Ser^61: Ginkgo biloba levopimaradiene synthase truncated at Ala^60-Ser^61; amino acid sequence SEQ.ID.NO:35 (protein, listed as Ginkgo biloba) MSAAETRPDQLPQEERFVSRLNADYHPAVWKDDFIDSLTSPNSHATSKSSVDETINKRIQTLVKEIQCMFQSMGDGETNPSAYDTAWVARIPSIDGSGAPQFPQTLQWILNNQLPDGSWGEECIFLAYDRVLNTLACLLTLKIWNKGDIQVQKGVEFVRKHMEEMKDEADNHRPSGFEVVFPAMLDEAKSLGLDLPYHLPFISQIHQKRQKKLQKIPLNVLHNHQTALLYSLEGLQDVVDWQEITNLQSRDGSFLSSPASTACVFMHTQNKRCLHFLNFVLSKFGDYVPCHYPLDLFERLWAVDTVERLGIDRYFKKEIKESLDYVYRYWDAERGVGWARCNPIPDVDDTAMGLRILRLHGYNVSSDVLENFRDEKGDFFCFAGQTQIGVTDNLNLYRCSQVCFPGEKIMEEAKTFTTNHLQNALAKNNAFDKWAVKKDLPGEVEYAIKYPWHRSMPRLEARSYIEQFGSNDVWLGKTVYKMLYVSNEKYLELAKLDFNMVQALHQKETQHIVSWWRESGFNDLTFTRQRPVEMYFSVAVSMFEPEFAACRIAYAKTSCLAVILDDLYDTHGSLDDLKLFSEAVRRWDISVLDSVRDNQLKVCFLGLYNTVNGFGKDGLKEQGRDVLGYLRKVWEGLLASYTKEAEWSAAKYVPTFNEYVENAKVSIALATVVLNSIFFTGELLPDYILQQVDLRSKFLHLVSLTGRLINDTKTYQAERNRGELVSSVQCYMRENPECTEEEALSHVYGIIDNALKELNWELANPASNAPLCVRRLLFNTARVMQLFYMYRDGFGISDKEMKDHVSRTLFDPVA | produced (+)-copalol, levopimaradiene, abietadiene, and abietatriene | approximately four | ~0.2 | ~0.8
